Entries after “also recorded” stand apart in the source; their conditions may differ.
Tests used:
eAPP230–624 [1] = target: T1, eAPP230–624 (Homo sapiens, UniProt P05067); experiment: Intrinsic tryptophan fluorescence of eAPP230–624; assay type: binding; details: for inhibition of eAPP dimerization (in words): legend of titration of 0.64 µM eAPP230–624 with 0–60 µM fragment; for log(EC50), EC50 = molar ratio Aβ to eAPP230–624 that invokes half the response: quenching at 375 nm, equation 4, n constrained to 7, R^2 = 0.88, differences not significant at p<0.05
T1 construct: made in house
Procedure: (§1) The excitation spectra of the intrinsic tryptophan fluorescence were recorded using either a Shimadzu RF-530PC (Shimadzu Scientific Instruments) or a Spectramax XPS spectrophotometer (Molecular Devices).
Full emission spectra were measured with the Shimadzu RF-530PC using a 3 ml quartz cuvette, a 5 nm slit width and protein concentrations between 0.2–0.6 µM. […] For these larger dilutions, control titrations with the protein alone were used to generate a scaling matrix where the scale factor was both a function of wavelength and dilution. […] A similar scaling matrix was used to correct for the effect of dilution with DMSO. […] All titrations were performed at 24°C. The oligomers were stored on ice during the experiment.
These concentrations are analogous to concentrations used to create complexes for the small angle x-ray scattering analysis. The incubated material was diluted with PBS so that the final protein concentration was 0.5 µM. The spectra were recorded with the Shimadzu […].
For experiments with the Spectromax XPS plate reader, an excitation wavelength of 295 nm was used. This excitation wavelength was chosen to minimize both the contribution of tyrosine in the protein and the background fluorescence of the 96-well plates (Costar #3915).
For the quenching experiments, the data were analyzed by constructing Stern-Volmer plots, F0/F vs. Q, where Fo is the intensity of the fluorescence at zero concentration, F is the intensity of the fluorescence, and Q is the concentration of the quenching agent. When quenching is through either a static (binding) or dynamic (collisional) mechanism this plot is linear and follows the equation: [drawing 1] (1) where Ksv is the quenching constant. When both processes are present the Stern-Volmer plot is quadratic: [drawing 2] (2) where KD is the equilibrium constant associated with dynamic quenching and Ks is the equilibrium constant associated with static quenching. All parameters were determined using PRISM (GraphPad) and the appropriate non-linear curve fitting routine.
The centroid wavelength (λc) was calculated as: [drawing 3] (3) where I(λi) is the intensity observed for the wavelength (λi). The range of wavelengths was 310–390 nm.

eAPP230–624 [2] = target: T1, eAPP230–624; experiment: Small-angle X-ray scattering (SAXS) of eAPP230–624 complexes; assay type: binding; details: for Dmax / Rg: SAXS, GNOM, eAPP230–624 with peptide; for Dmax: maximum dimension, max. estimated error ±10 Å; for Rg: radius of gyration, max. estimated error ±2 Å
Procedure: (§2) The samples were incubated on ice for 20 minutes and then concentrated to 50 µl with 10-kDa cutoff concentrators (Millipore). […] Samples of the filtrates were used for buffer subtraction.
(§3) The samples were then concentrated and purified with a Superdex S200 size-exclusion column with 20 mM Tris pH 7.4, 100 mM sodium chloride and 2 mM EDTA. Samples of the protein buffer from the size-exclusion columns were used for buffer subtraction.
(§4) Data collection and processing
(§5) Small-angle X-ray scattering data were collected using protein concentrations in the range of 0.5–3 mg/ml and an X-ray wavelength of 1.11 Å at beam line 12.3.1 (Advanced Light Source). Data were integrated with software customized for the beam line and processed with the program PRIMUS [30]. The program GNOM [31] was used to calculate the maximum dimension and the radius of gyration and to estimate the intensity of the scattering at zero angle for higher concentration samples.

[3] = target: MBP-eAPP_(230–624), maltose binding protein fusion protein containing residues 230–624 (UniProt P05067); experiment: small-angle X-ray scattering (SAXS); 150 µl MBP-eAPP230-624 (≈0.5 mg/ml) diluted with 400 µl of peptide solution, 20 minutes on ice, concentrated to 50 µl with 10-kDa cutoff concentrators
[4] = target: TRX-eAPP_(290–624), thioredoxin fusion protein containing residues 290–624 of APP695 (UniProt P05067); experiment: small-angle X-ray scattering (SAXS); eAPP fragment incubated on ice with Aβ oligomers or Aβ fragments (peptide less than 10 µM), concentrated and purified on Superdex S200 in 20 mM Tris pH 7.4, 100 mM sodium chloride, 2 mM EDTA
eAPP230–624 [5] = target: T1, eAPP230–624; experiment: Difference absorption spectra of eAPP230–624; assay type: binding; details: 1:6 molar ratio, 8.3 µM eAPP230–624, 50 µM compound, PBS plus 2% DMSO
MBP-eAPP230–624 = experiment: Small-angle X-ray scattering (SAXS) of MBP-eAPP230–624 complexes; assay type: binding; details: 50 µM compound, 1:12 molar ratio, PBS plus 2% DMSO
Procedure: as §1, §2, §3, §4, §5

[6] = system: B103 rat neuroblastoma cells stably expressing human wild-type APP; experiment: sAPPα and sAPPβ production in B103 cells (AlphaLISA); assay type: cell-based; details: 1 µM compound, 24 hours, 100,000 cells per well, vs 0.01% DMSO
Procedure: (§6) B103 rat neuroblastoma cells and 7W-CHO cells were seeded at 100,000 or 50,000 cells per well in a 96-well plate and allowed to grow for one day. The B103 rat neuroblastoma cells stably expressing human wild-type APP were a kind gift from Dr. Lennart Mucke (J. David Gladstone Institute of Neurological Disease and University of California, San Francisco). The 7W-CHO cells were a kind gift from Dr. Edward Koo (Department of Molecular Pathology, University of California, San Diego). The cell culture medium was then changed and the cells treated with 1 µM disulfiram, 1 µM sulfiram, or 0.01% DMSO (control). After 24 hours, the amount of sAPPα and sAPPβ produced in the medium was quantified using the AL231C and AL232C AlphaLISA kits from Perkin Elmer, respectively, modified using a custom biotinylated APP antibody.
A) Effect of treatment with disulfiram and sulfiram on sAPPα and Aβ production in 7W-CHO cells. […] After 24 hours, the amount of sAPPα and sAPPβ produced in the medium was quantified using the AL231C and AL232C AlphaLISA kit from Perkin Elmer, modified using a custom biotinylated human APP antibody. B) Effect on the ratio of α to β cleavage in 7W-CHO cells, as calculated by dividing the amount of sAPPα to sAPPβ produced by the 50,000 7W-CHO cells during one day under the effect of either disulfiram, sulfiram or a DMSO control. […]

7W-CHO cells = experiment: sAPPα and sAPPβ production in 7W-CHO cells (AlphaLISA); assay type: cell-based; details: for sAPPα production / α-cleavage of APP (in words): 1 µM compound, 24 hours, 50,000 cells per well, vs 0.01% DMSO
Procedure: as §6
A) Effect of treatment with disulfiram and sulfiram on sAPPα and Aβ production in 7W-CHO cells. 7W-CHO cells were seeded at 50,000 cells per well in a 96-well plate and allowed to grow for one day. The cell culture medium was then changed and the cells treated with 1 µM disulfiram, 1 µM sulfiram, or 0.01% DMSO (control). After 24 hours, the amount of sAPPα and sAPPβ produced in the medium was quantified using the AL231C and AL232C AlphaLISA kit from Perkin Elmer, modified using a custom biotinylated human APP antibody. B) Effect on the ratio of α to β cleavage in 7W-CHO cells, as calculated by dividing the amount of sAPPα to sAPPβ produced by the 50,000 7W-CHO cells during one day under the effect of either disulfiram, sulfiram or a DMSO control. C) Effect on the ratio of α to β cleavage in B103 cells. B103 neuroblastoma cells were seeded at 100,000 cells per well in a 96-well plate and allowed to grow for one day. The cell culture medium was then changed and the cells treated with 1 µM disulfiram, 1 µM sulfiram, or 0.01% DMSO (Control). After 24 hours, the amount of sAPPα and sAPPβ produced in the medium was quantified using the same modified AL231C and AL232C AlphaLISA kit from Perkin Elmer. The ratio of α to β cleavage was calculated by dividing the amount of sAPPα to sAPPβ produced by the 100,000 B103 cells during one day under the effect of the disulfiram, sulfiram or DMSO control.

[7] = target: the molecule itself; experiment: small-angle X-ray scattering (SAXS); eAPP fragment alone; 0.5–3 mg/ml, X-ray wavelength 1.11 Å; relative mass from I(0) against albumin and the eAPP fragment dimer
[8] = incubated, 1:6 molar ratio, 0.5 µM eAPP230–624

## 13-kDa Aβ1-42: 13-kDa Aβ1-42 oligomers, predominately trimers
eAPP230–624 [1]; rapid dilution, final 1:27 molar ratio, 0.64 µM eAPP230–624, Shimadzu RF-530PC
  increase in intensity of the fluorescence: 114%

## Aβ5-14: Aβ fragment (RHDSGYEVHH; Amyloid-beta protein 42; UniProt P05067 676-685, looked up, fragment)
eAPP230–624 [1]
  inhibition of eAPP dimerization (in words): inhibit eAPP dimerization

## 7-kDa Aβ1-40: 7-kDa Aβ1-40 dimers, prepared by sonication and 15 minutes incubation
eAPP230–624 [2]; SAXS relative mass, MWseq 45-kDa for eAPP230–624, max. error ±0.2, monomer around 1.3, protein alone 2.0
  MWcalc/MWseq: 1.2
eAPP230–624 [2]
  Dmax: 180 Å
  Rg: 49 Å
eAPP230–624 [1]
  inhibition of eAPP dimerization (in words): inhibit eAPP dimerization

## 70-kDa Aβ1-40: 70-kDa Aβ1-40 oligomer pool
eAPP230–624 [1]; Spectramax XPS
  log(EC50), EC50 = molar ratio Aβ to eAPP230–624 that invokes half the response: 1.32±0.01

## Aβ10-20 (peptide)
[3]
  MWcalc/MWseq (apparent mass of the sample over the sequence mass of the eAPP fragment): 1.3

## Aβ12-24: Aβ fragment (VHHQKLVFFAEDV; Amyloid-beta protein 42; UniProt P05067 683-695, looked up, fragment)
eAPP230–624 [1]
  inhibition of eAPP dimerization (in words): inhibit eAPP dimerization

## Aβ12-28: Aβ fragment
eAPP230–624 [1]
  inhibition of eAPP dimerization (in words): inhibit eAPP dimerization
eAPP230–624 [1]; titration of 0.64 µM eAPP230–624, 345 nm
  pattern of changes in the intrinsic fluorescence (in words): acted like Aβ1-40 dimers in terms of the changes in the intrinsic fluorescence

## Aβ1-42 species greater than 200-kDa: Aβ1-42 species greater than 200-kDa in size
eAPP230–624 [1]; Spectramax XPS, increasing molar ratio, up to 120 µM Aβ
  effect on intrinsic fluorescence at 375 nm (in words): slight enhancement of the intrinsic fluorescence
eAPP230–624 [1]; [8]
  change in fluorescence spectra (in words): relatively minor change in the fluorescence spectra

## Aβ11-17 (peptide)
[4]
  MWcalc/MWseq (apparent mass of the sample over the sequence mass of the eAPP fragment): 1.2

## 20-kDa Aβ1-42: 20-kDa Aβ1-42 oligomers
eAPP230–624 [2]
  Dmax: 170 Å
  Rg: 46 Å

## 13-kDa Aβ1-40: 13-kDa Aβ1-40 oligomer pool
eAPP230–624 [1]; from ratio of amplitudes of maximal response, vs 70-kDa pools, Spectramax XPS
  more oligomers that can bind eAPP (ratio of amplitudes A): about 150%
eAPP230–624 [1]; [8]
  blue-shift in the centroid wavelength: did not produce a significant blue shift
  fluorescence intensity relative to eAPP230–624: 80%
eAPP230–624 [1]; Spectramax XPS
  log(EC50), EC50 = molar ratio Aβ to eAPP230–624 that invokes half the response: 1.27±0.02

## CCN(CC)C(=S)SC(=S)N(CC)CC [Sulfiram]
eAPP230–624 [5]
  change in extinction coefficient: significant drop in the extinction coefficient
MBP-eAPP230–624
  effect on monomer-dimer equilibrium / dimerization of MBP-eAPP230–624 (in words): significantly affected the monomer-dimer equilibrium of MBP-eAPP230–624 in favor of the monomer; also recorded: shift the monomer-dimer equilibrium in favor of the monomer
[6]
  sAPPα production / α-cleavage of APP (in words): significantly enhance the production of sAPPα; also recorded: enhance α-cleavage significantly
7W-CHO cells
  sAPPα production / α-cleavage of APP (in words): increase sAPPα production
7W-CHO cells; listed as sulfiram
  sAPPα production / α-cleavage of APP (in words): significantly enhance the production of sAPPα; also recorded: enhance α-cleavage significantly
7W-CHO cells; sulfiram vs disulfiram, cell line not stated at place
  relative ability to enhance sAPPα production in cells (in words): reduced ability to enhance sAPPα production in cells
eAPP230–624 [1]; 0.64 µM eAPP230–624, disulfiram 0–130 µM, sulfiram 0–320 µM, Shimadzu RF-530PC
  quenching of intrinsic fluorescence (in words): significantly quenched the intrinsic fluorescence
eAPP230–624 [1]; intrinsic fluorescence, confirmed with SAXS
  effect on dimerization of the ectodomain fragment (in words): inhibit dimerization of the ectodomain fragment

B1: TRX-eAPP_(290–624), thioredoxin fusion protein containing residues 290–624 of APP695 (domain or fragment, UniProt P05067-4 290-624, looked up)
chain: PTTAASTPDAVDKYLETPGDENEHAHFQKAKERLEAKHRERMSQVMREWEEAERQAKNLPKADKKAVIQHFQEKVESLEQEAANERQQLVETHMARVEAMLNDRRRLALENYITALQAVPPRPRHVFNMLKKYVRAEQKDRQHTLKHFEHVRMVDPKKAAQIRSQVMTHLRVIYERMNQSLSLLYNVPAVAEEIQDEVDELLQKEQNYSDDVLANMISEPRISYGNDALMPSLTETKTTVELLPVNGEFSLDDLQPWHSFGADSVPANTENEVEPVDARPAADRGLTTRPGSGLTNIKTEEISEVKMDAEFRHDSGYEVHHQKLVFFAEDVGSNK
notes: numbers count on: APP695; Dimer by SAXS; source: expressed and purified as previously described [18]
[7]
  stoichiometry N: 2

B2: MBP-eAPP_(230–624), maltose binding protein fusion protein containing residues 230–624 (domain or fragment, UniProt P05067-4 230-624, looked up)
chain: EEEEVAEVEEEEADDDEDDEDGDEVEEEAEEPYEEATERTTSIATTTTTTTESVEEVVRVPTTAASTPDAVDKYLETPGDENEHAHFQKAKERLEAKHRERMSQVMREWEEAERQAKNLPKADKKAVIQHFQEKVESLEQEAANERQQLVETHMARVEAMLNDRRRLALENYITALQAVPPRPRHVFNMLKKYVRAEQKDRQHTLKHFEHVRMVDPKKAAQIRSQVMTHLRVIYERMNQSLSLLYNVPAVAEEIQDEVDELLQKEQNYSDDVLANMISEPRISYGNDALMPSLTETKTTVELLPVNGEFSLDDLQPWHSFGADSVPANTENEVEPVDARPAADRGLTTRPGSGLTNIKTEEISEVKMDAEFRHDSGYEVHHQKLVFFAEDVGSNK
notes: as for B1
[7]
  stoichiometry N: 2

B3: eAPP_(230–624), fragment of the APP ectodomain containing residues 230–624 (domain or fragment, UniProt P05067-4 230-624, looked up)
chain: B2 chain
notes: as for B1
[7]
  stoichiometry N: 2
